From patent publication US6436691B1, “Chemical compounds” (Zeneca Limited, priority 1995, dated 2002)

Columns and labels:
[1] = Conversion of Hipp-Glu by periplasmic shockate of HCPB mutants, 24 h (Example 18); assay type: biochemical; details: shockate concentration in reaction mixture 50 %; 24 h at 37° C.
[2] = Conversion of Hipp-Arg by periplasmic shockate of HCPB mutants, 24 h (Example 18); assay type: biochemical; details: shockate concentration in reaction mixture 50 %; 24 h at 37° C.
Method: The activity of [G251T,D253K]HCPB was measured using the assay conditions described in Example 17 but using either 50 μl of a neat or 1 in 10 or 1 in 100 dilution of [G251T,D253K]HCPB crude E.coli periplasmic shockate (shockate) sample in place of purified enzyme. Samples were incubated for 24 h at 37° C. […] For other HCPB mutants, the reaction volume was 250 μl and contained 125 μl of neat shockate or 1 in 50 dilution of shockate. The shockate samples were prepared as described in Example 16. The amount of Hippuric acid produced in 24 h was quantified by HPLC as described in Example 17 and the results are shown in Table 6 and are expressed as the percentage conversion of substrate into product in 24 h at 37° C.

[3] = Conversion of Hipp-Asp to hippuric acid by mutant and native human CPB, HPLC assay (Example 6); assay type: biochemical; details: 5 hr at 37° C.; 4 μg enzyme; 0.5 mM substrate
Method: (§1) Purified mutants of human CPB (D253K and D253R; Examples 1-3) and native human CPB, produced as described in Reference Example 12, were assayed for their ability to convert either hippuryl-L-aspartic acid (Hipp-Asp—Reference Example 2), hippuryl-L-glutamic acid (Hipp-Glu—Reference Example 1) or hippuryl-L-arginine (Sigma Chemical Company—cat no. H6625) to hippuric acid using a HPLC based assay.
(§2) The reaction mixture (250 μl) contained 4 μg human CPB (native or mutant) and 0.5 mM Hipp-Asp or Hipp-Glu in 0.025 M Tris-HCL, pH 7.5. Samples were incubated for 5 hr at 37° C. The reactions were terminated by the addition of 250 μl of 80% methanol, 20% distilled water, 0.2% trifluoro acetic acid and the amount of hippuric acid generated was quantified by HPLC.
(§3) HPLC analysis was carried out using a Hewlett Packard 1090 Series 11 (with diode array) HPLC system. Samples (50 μl) were injected onto a Hichrom Hi-RPB column (25 cm) and separated using a mobile phase of 40% methanol, 60% distilled water, 0.1% trifluoro acetic acid at a flow rate of 1 ml/min. The amount of product (hippuric acid) produced was determined from calibration curves generated with known amounts of hippuric acid (Sigma-H6375). The results are shown in Table 1 and are expressed as the percentage conversion of substrate into product in 5 hr at 37° C. with 4 μg enzyme.

[4] = Conversion of glutamic acid prodrug to intermediate by mutant and native HCPB, HPLC assay (Example 8); assay type: biochemical; details: prodrug 0.25-5.0 mM
[5] = Conversion of Hipp-Glu to hippuric acid by mutant and native human CPB, HPLC assay (Example 6); assay type: biochemical; details: 5 hr at 37° C.; 4 μg enzyme; 0.5 mM substrate
Method: as §1, §2, §3

[6] = Km and kcat of HCPB mutants with Hipp-Glu (Example 7); assay type: biochemical; details: Hipp-Glu 0.25-8.0 mM; pH 7.5; 5 h at 37° C.
In short: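 Hipp-Glu (0.25-8.0 mM) or Hipp-Asp (0.25-5.0 mM) in 0.025 M Tris-HCl, pH 7.5, was incubated with the mutant enzymes for 5 h at 37° C. Reactions were quenched with methanol/water containing 0.2% TFA, and hippuric acid was quantified by HPLC. Km and Vmax were obtained by curve fitting.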

[7] = Conversion of Hipp-Asp by purified HCPB mutants, 30 minutes, HPLC (Example 17); assay type: biochemical; details: 0.5 mM substrate, 30 minutes at 37° C.
In short: (§4)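 Purified human CPB mutants were incubated with hippuryl-L-Arg, -Glu or -Asp for 30 min at 37 °C, then stopped with acidic aqueous methanol. Hippuric acid was quantified by HPLC (20% methanol/50 mM phosphate pH 6.5, 230 nm). Values are % substrate converted to hippuric acid in 30 min.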

[8] = Km and kcat of HCPB mutants with Hipp-Asp (Example 7); assay type: biochemical; details: Hipp-Asp 0.25-5.0 mM; pH 7.5; 5 h at 37° C.
Method: Hipp-Glu and Hipp-Asp were diluted in range 0.25-8.0 mM and 0.25-5.0 mM respectively in 0.025 M Tris-HCL buffer, pH 7.5. Where necessary substrate samples were adjusted to pH 7.5 with 1M NaOH.
Samples were incubated for 5 h at 37° C. Reactions were terminated by the addition of 500 μl methanol/distilled water (80/20) containing 0.2% TFA. The amount of hippuric acid produced was quantified by HPLC as described in Example 6.
Km and Vmax values were calculated using the ENZFITTER software programme (Biosoft, Perkin Elmer).

[9] = Conversion of Hipp-Asp by periplasmic shockate of HCPB mutants, 24 h (Example 18); assay type: biochemical; details: shockate concentration in reaction mixture 50 %; 24 h at 37° C.
In short: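 Crude E. coli periplasmic shockate of each HCPB mutant was incubated with substrate for 24 h at 37° C, as neat or diluted shockate (1 in 10 or 1 in 100 for [G251T,D253K]HCPB; 1 in 50 for other mutants). Hippuric acid formed was quantified by HPLC. Values are percent conversion of substrate to product in 24 h.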

[10] = Conversion of prodrug of Example 24 to drug of Example 25 by HCPB mutants, HPLC (Example 20); assay type: biochemical; details: enzyme 15 μg/ml; 0.5 mM prodrug of Example 24; 5 minutes at 37° C.
Method: The reaction was stopped by adding MeCN (500 μl) plus 0.2% Trifluoroacetic acid. The amount of drug produced was then quantified by HPLC.
HPLC separation was carried out as described in Example 6 except that a mobile phase of 70% MeCN, 30% distilled water and 0.1% trifluoroacetic acid was used to achieve separation of prodrug (retention time 3.8 minutes) and drug (retention time 4.9 minutes) and the compounds were detected at 260 nm. The amount of drug produced was quantified from calibration curves generated with known amounts of drug.
The amount of [Q54R,D145A,D253K]HCPB and [G251T,D253K]HCPB mutants was reduced to 0.75 μg in the reaction mixture.

[11] = Conversion of Hipp-Arg to hippuric acid by mutant and native human CPB, HPLC assay (Example 6); assay type: biochemical; details: 5 hr at 37° C.; 4 μg enzyme
Method: as §1, §2, §3

[12] = tested on: LoVo colorectal tumour cells
[13] = Conversion of Hipp-Glu by purified HCPB mutants, 30 minutes, HPLC (Example 17); assay type: biochemical; details: 0.5 mM substrate, 30 minutes at 37° C.
In short: as §4

[14] = Conversion of Hipp-Arg by purified HCPB mutants, 30 minutes, HPLC (Example 17); assay type: biochemical; details: 0.5 mM substrate, 30 minutes at 37° C.
In short: as §4

[15] = Activity against Hipp-Arg in crude E. coli periplasmic shockate relative to mature HCPB (Example 16); assay type: biochemical
From the text: A number of other mutant HCPBs have been constructed in a similar manner to the methods described in Reference Examples 7 and 8, and Examples 12, 13, 14 and 15. In each case oligos were constructed to introduce specific changes in the gene sequence by methods similar to those described above. In some cases additional mutations were identified upon complete sequencing of the mutated gene, and these were presumably introduced during the PCR reactions. Mutants with enzyme activity against substrate analogues (see Example 18 below) have been identified, and examples of these are given in Table 4 below. […] This material is subsequently referred to as periplasmic shockate or shockate and is prepared by the following procedure.
1. A single colony was used to inoculate 75 ml of L-broth nutrient media containing 10 μg/ml tetracycline and arabinose to a final concentration of 0.01% (w/v). […]
The activity of [G251T,D253K]HCPB was measured using the assay conditions described in Example 17 but using either 50 μl of a neat or 1 in 10 or 1 in 100 dilution of [G251T,D253K]HCPB crude E.coli periplasmic shockate (shockate) sample in place of purified enzyme. […] The amount of Hippuric acid produced in 24 h was quantified by HPLC as described in Example 17 and the results are shown in Table 6 and are expressed as the percentage conversion of substrate into product in 24 h at 37° C.

O=C(O)CCC(=O)Oc1ccc(N(CCCl)CCCl)cc1
melting point: 98 to 100 °C

B1: D253K HCPB: mature HCPB with aspartate 253 changed to lysine, C-terminal (His)6-c-myc tag (protein, UniProt P15086 111-417, looked up, variant D253K)
Carboxypeptidase B: ATGHSYEKYNKWETIEAWTQQVATENPALISRSVIGTTFEGRAIYLLKVGKAGQNKPAIFMDCGFHAREWISPAFCQWFVREAVRTYGREIQVTELLDKLDFYVLPVLNIDGYIYTWTKSRFWRKTRSTHTGSSCIGTDPNRNFDAGWCEIGASRNPCDETYCGPAAESEKETKALADFIRNKLSSIKAYLTIHSYSQMMIYPYSYAYKLGENNAELNALAKATVKELASLHGTKYTYGPGATTIYPAAGGSKDWAYDQGIRYSFTFELRDTGRYGFLLPESQIRATCEETFLAIKYVASYVLEHLY
modifications: (His)6-c-myc tag
Hipp-Glu (% conversion) [1]: 7.4% | Hipp-Arg (% conversion) [2]: 0% | Hipp-Asp (% conversion to Hippuric acid) [3]: 78% | kcat, glutamic acid prodrug [4]: 0.016 s⁻¹ | Vmax, glutamic acid prodrug ([4]; enzyme 0.25 mg/ml): 0.000117 mM/s | Hipp-Glu (% conversion to Hippuric acid) [5]: 91% | Km [6]: 5.3 mM | kcat, Hipp-Glu [6]: 3.8 s⁻¹ | Hipp-Asp (% conversion) ([7]; enzyme 2.5 μg/ml): 2.9% | Hipp-Asp (% conversion) ([7]; enzyme 25 μg/ml): 22% | Km [8]: 2.7 mM | kcat, Hipp-Asp [8]: 0.26 s⁻¹ | Hipp-Asp (% conversion) [9]: 2.0% | Prodrug Hydrolysis (%) [10]: 70.4% | drug concentration at end of reaction [10]: 0.352 mM | Hipp-Arg (% conversion to Hippuric acid) [11]: <2% | cytotoxicity of the glutamic acid prodrug with enzyme added ([12]; 100 μg enzyme added to assay wells containing glutamic acid prodrug): comparable to that of the active drug | toxicity of prodrug of Example 21 with enzyme added ([12]; 2.4 to 11.75 μg/ml enzyme added to prodrug 500 μM, FIG. 16): matched that seen with 200 μM of the active drug | Hipp-Glu (% conversion) ([13]; enzyme 2.5 μg/ml): 14.6% | Hipp-Glu (% conversion) ([13]; enzyme 25 μg/ml): 79% | Hipp-Arg (% conversion) ([14]; enzyme 2.5 μg/ml): 0% | Hipp-Arg (% conversion) ([14]; enzyme 25 μg/ml): 0%

B2: C288S: HCPB mutant with C288S (protein, UniProt P15086 111-417, looked up, variant C288S)
Carboxypeptidase B: ATGHSYEKYNKWETIEAWTQQVATENPALISRSVIGTTFEGRAIYLLKVGKAGQNKPAIFMDCGFHAREWISPAFCQWFVREAVRTYGREIQVTELLDKLDFYVLPVLNIDGYIYTWTKSRFWRKTRSTHTGSSCIGTDPNRNFDAGWCEIGASRNPCDETYCGPAAESEKETKALADFIRNKLSSIKAYLTIHSYSQMMIYPYSYAYKLGENNAELNALAKATVKELASLHGTKYTYGPGATTIYPAAGGSDDWAYDQGIRYSFTFELRDTGRYGFLLPESQIRATSEETFLAIKYVASYVLEHLY
Hipp-Arg, activity relative to mature HCPB [15]: c (activity 75% of mature HCPB (described in Reference Examples 7 and 8))

B3: C288A: HCPB mutant with C288A (protein, UniProt P15086 111-417, looked up, variant C288A)
Carboxypeptidase B: ATGHSYEKYNKWETIEAWTQQVATENPALISRSVIGTTFEGRAIYLLKVGKAGQNKPAIFMDCGFHAREWISPAFCQWFVREAVRTYGREIQVTELLDKLDFYVLPVLNIDGYIYTWTKSRFWRKTRSTHTGSSCIGTDPNRNFDAGWCEIGASRNPCDETYCGPAAESEKETKALADFIRNKLSSIKAYLTIHSYSQMMIYPYSYAYKLGENNAELNALAKATVKELASLHGTKYTYGPGATTIYPAAGGSDDWAYDQGIRYSFTFELRDTGRYGFLLPESQIRATAEETFLAIKYVASYVLEHLY
Hipp-Arg, activity relative to mature HCPB [15]: d (activity 25% of mature HCPB (described in Reference Examples 7 and 8))
